# Experimental data taken from patent US6579848B1, “Depigmenting activity of agouti signal protein and peptides thereof” (The United States of America as represented by the …, priority 1995, dated 2003).
# B1: agouti protein: Recombinant murine agouti signal protein purified from a baculovirus expression system (protein)
# chain: MDVTRLLLATLVSFLCFFTVHSHLALEETLGDDRSLRSDSSMNSLDFSSVSIVALNKKSKKISRKEAEKRKRSSKKKASMKKVARPPPPSPCVATRDSCKPPAPACCDPCASCQCRFFGSACTCRVLNPNC
# What was measured:
# [1] = system: MSH receptor; experiment: Northern blotting of MSH receptor RNA in melan-a cells; assay type: cell-based, murine; details: for RNA level of MSH receptor: 10 nM, 5 days
# Protocol: Briefly, 2.0 μg of mRNA, isolated using a total RNA isolation kit and mRNA purification kit (Promega, Madison, Wis.), were electrophoresed and then blotted to Sure-Blot nylon membranes (Oncor, Gaithersburg, Md.), hybridized with ^32P-labeled probes, dehybridized and rehybridized with other probes again as necessary.
# The effects of agouti protein on expression of TRP1, TRP2, and the MSH receptor were examined.
# Total RNA was extracted from cells using an RNeasy total RNA isolation kit (QIAGEN, Catsworth, Calif.), following the manufacturer's instructions. 20 μg of total RNA was denatured, electrophoresed through 1.0% agarose gels, and transferred overnight at 23° C. to SureBlot nylon hybridization membranes (Oncor, Gaithersburg, Md.) in the standard manner. Filters were prehybridized for 3 hours at 45° C. with Hybrisol I solution (Oncor, 50% formamide, 10% dextran sulfate, 1% SDS and blocking reagent), and then hybridized with a ^32P-labeled probe. […] A commercially available cDNA probe specific for glyceraldehyde-3-phospho-dehydrogenase (GAPDH) was used to standardize RNA loading on the blots. The cDNA probes were labeled using random primer extension and heated to 100° C. for 10 minutes, then cooled on ice for 10 minutes prior to adding to the hybridization solution. Hybridization was performed with the radiolabeled probes in Hybrisol I (3×10^7 cpm/10 ml) overnight at 45° C. with gentle shaking. Following the incubation, the blots were washed for 10 minutes at 23° C. with 2×SSC/10% SDS, then for 10 minutes with 0.2×SSC/0.5% SDS, and finally for 10 minutes with 0.1×SSC/0.1% SDS. The blots were then exposed in phosphoroimager cassettes at 23° C. for 1 hour and the densities of the bands were scanned using ImageQuant software. The % control for each probe was corrected for initial loading using comparison with the GAPDH standard. […] This was repeated as necessary until no remaining probe could be detected.
# [2] = system: MSH receptor; experiment: Northern blotting of MSH receptor RNA in B16F10 melanoma cells; assay type: cell-based; details: B16F10 murine melanoma cells, 10 nM, 5 days
# Protocol: (§1) The melan-a melanocyte cell line was used as described in Example 1. This clonal line was derived from C57B1 nonagouti black mice. The growth medium was minimum essential medium containing 200 nM TPA. B16F10 melanoma cells were also used to compare the effect of agouti protein with melan-a. These cells were grown in Dulbecco's modified Eagle medium.
# (§2) Recombinant agouti protein was purified from baculovirus system by Dr. Michael Ollmann in Dr. Gregory Barsh's laboratory by methods known in the art. 2×10^6 cells were seeded per 15 cm diameter dish. The medium was changed everyday, and fresh agouti protein and/or αMSH added everyday usually at 10 nM. To examine transcriptional regulation, total RNA was isolated and Northern blotting performed by methods described in Example 1. The A26 probe to the MSH-R was provided by Dr. R. Cone and is described in Mountjoy et al. Science 257:1248-1251, 1992. At the translational level, metabolic labeling was used in conjunction with immunoprecipitation as described in Example 1. Western blotting and enzyme assay was used to examine function.
# (§3) The effect of agouti protein and MSH observed for melan-a cells was confirmed using B16F10 murine melanoma cells. Similar effects were observed (FIG. 13).
# [3] = system: melan-a cells; experiment: Pigmentation and ultrastructure of melan-a cells; assay type: cell-based, murine
# Protocol: Cells were harvested, centrifuged for 5 minutes at 14,000 g at 4° C., and fixed for 2 hours at 23° C. in 2% glutaraldehyde-2% paraformaldehyde in 0.1 M sodium cacodylate buffer, pH 7.3; the fixative was then removed and the samples were stored in phosphate-buffered saline containing 2% sucrose at 4° C. Samples were subsequently processed with graded alcohols and embedded in epoxy resin for electron microscopy in the usual manner. Thin sections were stained with uranyl acetate and lead citrate, viewed and photographed with a Zeiss EM10 electron microscope, as previously detailed (Prota et al., 1995).
# [4] = system: tyrosinase; experiment: Northern blotting of tyrosinase RNA in B16F10 melanoma cells; assay type: cell-based; details: B16F10 murine melanoma cells, 10 nM, 5 days
# Protocol: as §1, §2, §3
# [5] = molecular target: MC1-R; experiment: Inhibition of activation of the MC1-R; assay type: biochemical; details: preparation ≧90% pure
# Description: (§4) Recombinant mouse ASP was generated and purified using a baculovirus expression system as described in Ollmann et al. (in preparation). […] The experiment described in FIG. 2 has also been repeated with an ASP preparation ≧99% pure with virtually identical results.
# [6] = Retention of activity at 37° in water or tissue culture media; assay type: physicochemical
# Description: as §4
# [7] = system: melan-a murine melanocytes; experiment: Chemical analysis of eumelanin and pheomelanin contents of melan-a melanocytes; assay type: cell-based; details: black melan-a murine melanocytes in vitro
# Protocol: Chemical degradation and analysis of eumelanin and pheomelanin contents were performed and quantitated as previously reported (Ito and Fujita, 1985).
Molecule,RNA level of MSH receptor [1],MSH receptor expression [2],pigmentation of the cells ([3]; black melan-a murine melanocytes in vitro),"amount of melanosomes (ultrastructural study) ([3]; melan-a cells, 10 nM, 5 days)","melanosome structure (ultrastructural study) ([3]; melan-a cells, 10 nM, 5 days)","color of cell pellet ([3]; melan-a cells, 10 nM, 5 days incubation)",tyrosinase RNA [4],"level of RNA for the MSH receptor ([1]; 24 hours, different concentrations)",Ki [5] [nM],time for which activity is retained [6],eumelanin production [7],synthesis of pheomelanin [7]
"α-melanocyte stimulating hormone [MSH, reference compound]",no significant increase,–,–,–,–,–,–,–,–,–,–,–
B1,no significant effect,elevated,markedly inhibited,decreased,pheomelanosome-like structures were found,changed from black to light brown,did not reduce tyrosinase RNA below baseline,no significant effect,0.22,more than 48 hours,significantly decreased,increased
